Patent US9994881B2, “Functionalized carboxylic acids and alcohols by reverse fatty acid oxidation in engineered microbes” (William Marsh Rice University, priority 2011, dated 2018)

Experiments:
[1] = substrate: CC(=O)CC(=O)SCCNC(=O)CCNC(=O)[C@H](O)C(C)(C)COP(=O)(O)OP(=O)(O)OC[C@H]1O[C@@H](n2cnc3c(N)ncnc32)[C@H](O)[C@@H]1OP(=O)(O)O; test: purified protein, by the assay type; assay type: biochemical, Escherichia coli; conditions: other: reverse direction, pH 7.5, 2 mM CoA, 25° C.
Text: (§1) For enzyme characterization, E. coli fadA and fadB genes were cloned from MG1655 genomic DNA into the pUCBB-ntH6 vector^43 to yield a constitutively expressed gene with a n-terminal 6 His-tag that can be cleaved by Thrombin. fadA was amplified as two halves with the primers fadANdeI5p:fadAmidrev (1st half) and fadAmidfor:fadANotI3p (2nd half) (Supplementary Table S3).
(§2) fadB was amplified in three parts with fadBNdeI5p:fadBmid1rev (1st part), fadBmid1for:fadBmid2rev (2nd part), and fadBmid2for:fadBNotI3p (3rd part) (Supplementary Table S3). fadA and fadB PCR products sections were combined by overlap extension PCR to yield the whole genes, which were subsequently digested with NdeI and NotI restriction enzymes and ligated into pUCBB-ntH6 that was previously digested with NdeI and NotI to yield pUCBB-ntH6-FadA and pUCBB-ntH6-FadB.
(§3) Cultures for enzymatic assays were grown overnight in 100 mL of LB media at 37° C. in 250 mL baffled flasks (Wheaton Industries, Inc., Millville, N.J.) in E. coli BL21 (DE3) cells induced with either 1 mM IPTG (pCA24N, pTrcHis2A) or 1 mM Arabinose (pUCBB-pBAD) at an OD600˜0.6, or expressed constitutively (pUCBB-ntH6). Reactions were monitored on either a Synergy HT plate reader (BioTek Instruments, Inc., Winooski, Vt.) at 25° C. (for reactions monitored at 300 nm or higher) or in a Biomate 5 Spectrophotometer (Thermo Scientific, Waltham, Mass.) for reactions at 263 nm. […]
(§4) For kinetic characterization, his-tagged proteins of AtoB, FadA, FadB, caHBD, egTER were purified from the B-PER supernatant fractions using Talon Metal Affinity Resin (Clontech Laboratories, Inc., Mountain View, Calif.) using gravity purification. […] Enzyme concentration was established by measuring the absorbance at […] and extinction coefficients predicted for each enzyme by the ProtParam program (web.expasy.org/protparam/).
(§5) For kinetic characterization, an appropriate amount of enzyme was established by checking linear range near predicted KM values. Then, the rates were measured for a range of substrates in order to establish kcat and KM. […]

[2] = substrate: CC(=O)CC(=O)SCCNC(=O)CCNC(=O)[C@H](O)C(C)(C)COP(=O)(O)OP(=O)(O)OC[C@H]1O[C@@H](n2cnc3c(N)ncnc32)[C@H](O)[C@@H]1OP(=O)(O)O; test: 3-Hydroxyacyl-CoA (β-hydroxybutyryl-CoA) dehydrogenase kinetics (oxidation of NADH at 340 nm); assay type: biochemical, Escherichia coli; conditions: other: NADH dependent reduction, pH 7.5, 0.2 mM NADH, 25° C.
Text: as §1, §2, §3, §4, §5

[3] = substrate: CC(=O)CC(=O)SCCNC(=O)CCNC(=O)[C@H](O)C(C)(C)COP(=O)(O)OP(=O)(O)OC[C@H]1O[C@@H](n2cnc3c(N)ncnc32)[C@H](O)[C@@H]1OP(=O)(O)O; test: purified protein, by the assay type; conditions: 25° C.
[4] = substrate: CC(=O)SCCNC(=O)CCNC(=O)[C@H](O)C(C)(C)COP(=O)(O)OP(=O)(O)OC[C@H]1O[C@@H](n2cnc3c(N)ncnc32)[C@H](O)[C@@H]1OP(=O)(O)O; test: purified protein, by the assay type; conditions: 25° C.
[5] = substrate: C/C=C/C(=O)SCCNC(=O)CCNC(=O)[C@H](O)C(C)(C)COP(=O)(O)OP(=O)(O)OC[C@H]1O[C@@H](n2cnc3c(N)ncnc32)[C@H](O)[C@@H]1OP(=O)(O)O; test: Crotonyl-CoA reductase kinetics (loss of NADH absorbance); assay type: biochemical, Euglena gracilis; conditions: other: NADH as co-factor, 0.2 mM NADH, pH 7.5, 25° C.
Text: For AtoB and thioesterase characterization assays, the pCA24N-gene (-gfp) plasmids from the ASKA collection^44 were used. For expression of E. gracilis TER for kinetic characterization, the egTER gene was cloned into pTrcHis2A using the In-Fusion protocol (Clontech Laboratories, Inc., Mountain View, Calif.) following PCR amplification from the aforementioned codon-optimized egTER containing plasmid with the primer pair of F1pTH6hisEgter and R1pTH6hisEgter (Supplementary Table S3).
as §3, §4
For kinetic characterization, an appropriate amount of enzyme was established by checking linear range near predicted KM values. Then, the rates were measured for a range of substrates in order to establish kcat and KM. In the cases of FadB for the crotonase reaction and FadA in the “forward” thiolase reaction coupled with HBD, substrate saturation could not be established, as such, the kcat/KM for the reaction was determined by dividing the linear slope of Velocity vs. [Substrate] by the amount of enzyme used in the assays. […]

[6] = substrate: C/C=C/C(=O)SCCNC(=O)CCNC(=O)[C@H](O)C(C)(C)COP(=O)(O)OP(=O)(O)OC[C@H]1O[C@@H](n2cnc3c(N)ncnc32)[C@H](O)[C@@H]1OP(=O)(O)O; test: purified protein, by the assay type; conditions: other: pH 7.5, 200 mM KCl, DTNB, 25° C.
Procedure: (§6) Cells were lysed using Bacterial Protein Extraction Reagent (B-PER) (Thermo Scientific, Waltham, Mass.) as per the prescribed protocol in order to obtain the supernatant containing the active enzymes.
(§7) For kinetic characterization, an appropriate amount of enzyme was established by checking linear range near predicted KM values. Then, the rates were measured for a range of substrates in order to establish kcat and KM. In the cases of FadB for the crotonase reaction and FadA in the “forward” thiolase reaction coupled with HBD, substrate saturation could not be established, as such, the kcat/KM for the reaction was determined by dividing the linear slope of Velocity vs. [Substrate] by the amount of enzyme used in the assays. For reactions that could be saturated, Velocity vs. [Substrate] was fitted by the EnzKIN Matlab module (mathworks.com/matlabcentral/fileexchange/26653) to establish Vmax and KM.
(§8) Thioesterase activity was monitored by following the production of TNB at 412 nm (ε=4.3 mM^−1 cm^−1)^30. Reactions were carried out in the presence of 100 mM Tris pH 7.5, 200 mM KCl, 25 mM DTNB and 200 μM of the ‘-CoA’ substrate in a volume of 200 μL at 25° C.

[7] = substrate: CC(O)CC(=O)SCCNC(=O)CCNC(=O)[C@H](O)C(C)(C)COP(=O)(O)OP(=O)(O)OC[C@H]1O[C@@H](n2cnc3c(N)ncnc32)[C@H](O)[C@@H]1OP(=O)(O)O; test: purified protein, by the assay type; conditions: other: pH 7.5, 200 mM KCl, DTNB, 25° C.
Procedure: as §6, §7, §8

[8] = substrate: CCCC(=O)SCCNC(=O)CCNC(=O)[C@H](O)C(C)(C)COP(=O)(O)OP(=O)(O)OC[C@H]1O[C@@H](n2cnc3c(N)ncnc32)[C@H](O)[C@@H]1OP(=O)(O)O; test: purified protein, by the assay type; conditions: other: pH 7.5, 200 mM KCl, DTNB, 25° C.
Procedure: as §6, §7, §8

[9] = other: reverse direction, pH 7.5, 2 mM CoA
[10] = other: acetyl-CoA condensation, pH 7.5, 0.2 mM NADH
[11] = other: pH 7.5, 200 mM KCl, DTNB

B1: E. coli FadA (3-ketoacyl-CoA thiolase, YP_026272.1), wild type, his-tagged (Escherichia coli K-12) (protein)
chain: MEQVVIVDAIRTPMGRSKGGAFRNVRAEDLSAHLMRSLLARNPALEAAALDDIYWGCVQQTLEQGFNIARNAALLAEVPHSVPAVTVNRLCGSSMQALHDAARMIMTGDAQACLVGGVEHMGHVPMSHGVDFHPGLSRNVAKAAGMMGLTAEMLARMHGISREMQDAFAARSHARAWAATQSAAFKNEIIPTGGHDADGVLKQFNYDEVIRPETTVEALATLRPAFDPVNGMVTAGTSSALSDGAAAMLVMSESRAHELGLKPRARVRSMAVVGCDPSIMGYGPVPASKLALKKAGLSASDIGVFEMNEAFAAQILPCIKDLGLIEQIDEKINLNGGAIALGHPLGCSGARISTTLLNLMERKDVQFGLATMCIGLGQGIATVFERV
notes: assayed alone without FadB
Km [1]: 422.5 ± 57.3 µM | kcat [1]: 0.75 ± 0.09 s⁻¹ | kcat/Km [1]: 1770 M⁻¹ s⁻¹

B2: E. coli FadB (hydroxyacyl-CoA dehydrogenase / enoyl-CoA hydratase, NP_418288.1), wild type, his-tagged (Escherichia coli K-12) (protein)
chain: MLYKGDTLYLDWLEDGIAELVFDAPGSVNKLDTATVASLGEAIGVLEQQSDLKGLLLRSNKAAFIVGADITEFLSLFLVPEEQLSQWLHFANSVFNRLEDLPVPTIAAVNGYALGGGCECVLATDYRLATPDLRIGLPETKLGIMPGFGGSVRMPRMLGADSALEIIAAGKDVGADQALKIGLVDGVVKAEKLVEGAKAVLRQAINGDLDWKAKRQPKLEPLKLSKIEATMSFTIAKGMVAQTAGKHYPAPITAVKTIEAAARFGREEALNLENKSFVPLAHTNEARALVGIFLNDQYVKGKAKKLTKDVETPKQAAVLGAGIMGGGIAYQSAWKGVPVVMKDINDKSLTLGMTEAAKLLNKQLERGKIDGLKLAGVISTIHPTLDYAGFDRVDIVVEAVVENPKVKKAVLAETEQKVRQDTVLASNTSTIPISELANALERPENFCGMHFFNPVHRMPLVEIIRGEKSSDETIAKVVAWASKMGKTPIVVNDCPGFFVNRVLFPYFAGFSQLLRDGADFRKIDKVMEKQFGWPMGPAYLLDVVGIDTAHHAQAVMAAGFPQRMQKDYRDAIDALFDANRFGQKNGLGFWRYKEDSKGKPKKEEDAAVEDLLAEVSQPKRDFSEEEIIARMMIPMVNEVVRCLEEGIIATPAEADMALVYGLGFPPFHGGAFRWLDTLGSAKYLDMAQQYQHLGPLYEVPEGLRNKARHNEPYYPPVEPARPVGDLKTA
notes: assayed alone without FadA
Km [2]: 390.0 ± 19.2 µM | kcat [2]: 25.9 ± 1.2 s⁻¹ | kcat/Km [2]: 66500 M⁻¹ s⁻¹

B3: E. coli AtoB (thiolase), wild type, his-tagged (Escherichia coli K-12) (protein)
chain: MKNCVIVSAVRTAIGSFNGSLASTSAIDLGATVIKAAIERAKIDSQHVDEVIMGNVLQAGLGQNPARQALLKSGLAETVCGFTVNKVCGSGLKSVALAAQAIQAGQAQSIVAGGMENMSLAPYLLDAKARSGYRLGDGQVYDVILRDGLMCATHGYHMGITAENVAKEYGITREMQDELALHSQRKAAAAIESGAFTAEIVPVNVVTRKKTFVFSQDEFPKANSTAEALGALRPAFDKAGTVTAGNASGINDGAAALVIMEESAALAAGLTPLARIKSYASGGVPPALMGMGPVPATQKALQLAGLQLADIDLIEANEAFAAQFLAVGKNLGFDSEKVNVNGGAIALGHPIGASGARILVTLLHAMQARDKTLGLATLCIGGGQGIAMVIERLN
Km [3, 9]: 68.1 ± 2.56 µM | kcat [3, 9]: 9.23 s⁻¹ | kcat/Km [3, 9]: 136000 M⁻¹ s⁻¹ | Km [4, 10]: 892.0 ± 56.5 µM | kcat [4, 10]: 3.17 s⁻¹ | kcat/Km [4, 10]: 3550 M⁻¹ s⁻¹

B4: Euglena gracilis trans-2-enoyl-CoA reductase egTER (AAW66853.1), his-tagged (Euglena gracilis) (protein)
chain: VPQMAEGFSGEATSAWAAAGPQWAAPLVAAASSALALWWWAARRSVRRPLAALAELPTAVTHLAPPMAMFTTTAKVIQPKIRGFICTTTHPIGCEKRVQEEIAYARAHPPTSPGPKRVLVIGCSTGYGLSTRITAAFGYQAATLGVFLAGPPTKGRPAAAGWYNTVAFEKAALEAGLYARSLNGDAFDSTTKARTVEAIKRDLGTVDLVVYSIAAPKRTDPATGVLHKACLKPIGATYTNRTVNTDKAEVTDVSIEPASPEEIADTVKVMGGEDWELWIQALSEAGVLAEGAKTVAYSYIGPEMTWPVYWSGTIGEAKKDVEKAAKRITQQYGCPAYPVVAKALVTQASSAIPVVPLYICLLYRVMKEKGTHEGCIEQMVRLLTTKLYPENGAPIVDEAGRVRVDDWEMAEDVQQAVKDLWSQVSTANLKDISDFAGYQTEFLRLFGFGIDGVDYDQPVDVEADLPSAAQQ
Km [5]: 98.5 ± 7.7 µM | kcat [5]: 1.14 ± 0.08 s⁻¹ | kcat/Km [5]: 11600 M⁻¹ s⁻¹

B5: E. coli YciA (acyl-CoA thioesterase, NP_415769.1), wild type (Escherichia coli K-12) (protein)
chain: MSTTHNVPQGDLVLRTLAMPADTNANGDIFGGWLMSQMDIGGAILAKEIAHGRVVTVRVEGMTFLRPVAVGDVVCCYARCVQKGTTSVSINIEVWVKKVASEPIGQRYKATEALFKYVAVDPEGKPRALPVE
Km [6]: 1348.8 ± 235.5 µM | Km [3, 11]: 875.7 ± 180.9 µM | kcat [3, 11]: 265 ± 54.7 s⁻¹ | kcat/Km [3, 11]: 302000 M⁻¹ s⁻¹ | Km [4, 11]: 42.7 ± 1.2 µM | Km [7]: 353.8 ± 38.8 µM | Km [8]: 641.8 ± 91.9 µM | kcat [8]: 558 ± 79.6 s⁻¹ | kcat/Km [8]: 869000 M⁻¹ s⁻¹
